Self-aminoacylation data for 21 sequences are collected here from the supplement of paper PMC9233669.

Variants at the floor of the assay were thinned out.

For one data set, the system named is biotinyl-Phe-oxazolone. Description: self-aminoacylation, catalytic enhancement (BFO) (fold over background); higher = more active; k-Seq, kA / k0A0; sequences stand for … in GGGAAUGGAUCCACAUCUACGAAUUC…UUCACUGCAGACUUGACGAAGCUG
Summed up: (§1)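 Each biotinyl-aminoacyl-oxazolone, at 2–1250 μM, was incubated with mutagenized RNA pools (0.43 μM) carrying a 21-nt variable region. The 50 μL reactions contained HEPES/NaCl/KCl/MgCl2/CaCl2 buffer with 5% acetonitrile at pH 6.9–7.0 and ran for 90 minutes at room temperature. After streptavidin capture, RNA was measured by qPCR in triplicate and by Illumina sequencing, and catalytic enhancement was calculated as median kA over the uncatalyzed rate from a pseudo-first-order fit of per-sequence fraction reacted.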

The next data set has as its system biotinyl-Met-oxazolone. Description: self-aminoacylation, catalytic enhancement (BMO) (fold over background); higher = more active; k-Seq, kA / k0A0; sequences stand for … in GGGAAUGGAUCCACAUCUACGAAUUC…UUCACUGCAGACUUGACGAAGCUG
Summed up:
as §1

In another data set the test system is biotinyl-Leu-oxazolone. Description: self-aminoacylation, catalytic enhancement (BLO) (fold over background); higher = more active; k-Seq, kA / k0A0; sequences stand for … in GGGAAUGGAUCCACAUCUACGAAUUC…UUCACUGCAGACUUGACGAAGCUG
Summed up:
as §1

The next data set deals with biotinyl-Ile-oxazolone. Description: self-aminoacylation, catalytic enhancement (BIO) (fold over background); higher = more active; k-Seq, kA / k0A0; sequences stand for … in GGGAAUGGAUCCACAUCUACGAAUUC…UUCACUGCAGACUUGACGAAGCUG
In outline: as §1

The subject of a further data set is biotinyl-Trp-oxazolone. Briefly: self-aminoacylation, catalytic enhancement (BWO) (fold over background); higher = more active; k-Seq, kA / k0A0; sequences stand for … in GGGAAUGGAUCCACAUCUACGAAUUC…UUCACUGCAGACUUGACGAAGCUG
In outline:
as §1

Another data set relates to biotinyl-Val-oxazolone. Description: self-aminoacylation, catalytic enhancement (BVO) (fold over background); higher = more active; k-Seq, kA / k0A0; sequences stand for … in GGGAAUGGAUCCACAUCUACGAAUUC…UUCACUGCAGACUUGACGAAGCUG
In outline: as §1

On to “AAGUUUUCUAAUGGUCGCAAG [Fam3.1 aminoacylation ribozyme variant]”, for which the self-aminoacylation stood at 2.21 with biotinyl-Phe-oxazolone; 1.21 in the data set on biotinyl-Met-oxazolone; 1.6 with biotinyl-Leu-oxazolone; 1.67 in the data set on biotinyl-Ile-oxazolone; 1.68 in the data set on biotinyl-Trp-oxazolone; 1.38 with biotinyl-Val-oxazolone.
Consider “AAGUUUUUUAAUAGUCGCAAG [Fam3.1 aminoacylation ribozyme variant]”, for which the self-aminoacylation in the data set on biotinyl-Phe-oxazolone was determined as 3.28; in the data set on biotinyl-Met-oxazolone, 1.58; in the data set with biotinyl-Leu-oxazolone, 1.71; with biotinyl-Ile-oxazolone, 2.01; in the data set on biotinyl-Trp-oxazolone, 2.02; in the data set on biotinyl-Val-oxazolone it was 1.62.
With “AAUACCCAGGUCAUCGAGUGA [Fam2.1 aminoacylation ribozyme variant]”, the self-aminoacylation in the data set on biotinyl-Phe-oxazolone came out at 17.6; in the data set with biotinyl-Met-oxazolone, 4.41; in the data set with biotinyl-Leu-oxazolone, 4.58; with biotinyl-Ile-oxazolone it was 2.87; with biotinyl-Trp-oxazolone, 5.81; with biotinyl-Val-oxazolone it was 2.56.
Turning to “AAUACCCUGGUCACCGAGUGA [Fam2.1 aminoacylation ribozyme variant]”, the self-aminoacylation in the data set on biotinyl-Phe-oxazolone turned out to be 39.1; in the data set with biotinyl-Met-oxazolone, 6.98; with biotinyl-Leu-oxazolone, 6.58; in the data set with biotinyl-Ile-oxazolone it was 4.13; in the data set with biotinyl-Trp-oxazolone it was 6.81; in the data set with biotinyl-Val-oxazolone it was 3.33.
Regarding “AAUACCCUGGUCAGCGAGUGA [Fam2.1 aminoacylation ribozyme variant]”, the self-aminoacylation is 3.78 in the data set on biotinyl-Phe-oxazolone; 4.02 with biotinyl-Met-oxazolone; 4.46 with biotinyl-Leu-oxazolone; 2.36 in the data set on biotinyl-Ile-oxazolone; 5.5 in the data set on biotinyl-Trp-oxazolone; 2.61 in the data set on biotinyl-Val-oxazolone.
Take “AAUACCCUGGUCAUCAAGUGA [Fam2.1 aminoacylation ribozyme variant]”: the self-aminoacylation with biotinyl-Phe-oxazolone was determined as 2.42; in the data set on biotinyl-Met-oxazolone, 1.48; in the data set with biotinyl-Leu-oxazolone, 1.56; with biotinyl-Ile-oxazolone, 1.15; in the data set on biotinyl-Trp-oxazolone it was 1.75; with biotinyl-Val-oxazolone it was 1.16.
With “AAUACCCUGGUCAUCGAGAGA [Fam2.1 aminoacylation ribozyme variant]”, the self-aminoacylation was 0.87 with biotinyl-Phe-oxazolone; 0.552 with biotinyl-Met-oxazolone; 0.673 in the data set on biotinyl-Leu-oxazolone; 0.653 with biotinyl-Ile-oxazolone; 0.752 with biotinyl-Trp-oxazolone; 0.65 in the data set with biotinyl-Val-oxazolone.
For “AAUACCCUGGUCAUCGAGUAA [Fam2.1 aminoacylation ribozyme variant]”, the self-aminoacylation in the data set on biotinyl-Phe-oxazolone came to 3.36; in the data set with biotinyl-Met-oxazolone it was 1.51; in the data set on biotinyl-Leu-oxazolone it was 1.93; in the data set on biotinyl-Ile-oxazolone it was 1.41; with biotinyl-Trp-oxazolone, 1.32; in the data set on biotinyl-Val-oxazolone it was 1.54.
Take “AAUACCCUGGUCAUCGAGUGA [Fam2.1 aminoacylation ribozyme variant]”: the self-aminoacylation is 20.8 in the data set on biotinyl-Phe-oxazolone; 9.27 in the data set with biotinyl-Met-oxazolone; 8.74 in the data set with biotinyl-Leu-oxazolone; 5.01 with biotinyl-Ile-oxazolone; 11.2 in the data set with biotinyl-Trp-oxazolone; 5.52 in the data set with biotinyl-Val-oxazolone.
For the sequence “AAUACCCUGGUCAUCGAGUGU [Fam2.1 aminoacylation ribozyme variant]”, the self-aminoacylation with biotinyl-Phe-oxazolone is 20.5; in the data set with biotinyl-Met-oxazolone it was 8.79; in the data set with biotinyl-Leu-oxazolone, 7.95; in the data set on biotinyl-Ile-oxazolone it was 3.84; in the data set on biotinyl-Trp-oxazolone, 8.44; with biotinyl-Val-oxazolone, 4.56.
With “AAUACCCUGGUCAUCGCGUGA [Fam2.1 aminoacylation ribozyme variant]”, the self-aminoacylation with biotinyl-Phe-oxazolone was found to be 118; in the data set with biotinyl-Met-oxazolone, 16.9; with biotinyl-Leu-oxazolone, 15.7; in the data set on biotinyl-Ile-oxazolone it was 7.23; in the data set on biotinyl-Trp-oxazolone, 16.1; with biotinyl-Val-oxazolone, 8.98.
On to “AAUACCCUGGUCAUCGUGUGA [Fam2.1 aminoacylation ribozyme variant]”, for which the self-aminoacylation was determined as 11.4 in the data set on biotinyl-Phe-oxazolone; 2.55 in the data set with biotinyl-Met-oxazolone; 2.39 in the data set on biotinyl-Leu-oxazolone; 1.51 with biotinyl-Ile-oxazolone; 2.98 with biotinyl-Trp-oxazolone; 1.35 in the data set on biotinyl-Val-oxazolone.
As to “AAUACCCUGGUCAUCUAGUGA [Fam2.1 aminoacylation ribozyme variant]”, the self-aminoacylation in the data set with biotinyl-Phe-oxazolone was determined as 28.3; in the data set with biotinyl-Met-oxazolone, 6.98; in the data set on biotinyl-Leu-oxazolone, 7.36; in the data set on biotinyl-Ile-oxazolone it was 3.19; in the data set on biotinyl-Trp-oxazolone it was 8.94; in the data set with biotinyl-Val-oxazolone, 3.66.
For “AAUACCCUGGUCAUGGAGUGA [Fam2.1 aminoacylation ribozyme variant]”, the self-aminoacylation is 1.9 in the data set on biotinyl-Phe-oxazolone; 2.43 in the data set on biotinyl-Met-oxazolone; 3.47 in the data set on biotinyl-Leu-oxazolone; 2.21 with biotinyl-Ile-oxazolone; 3.45 with biotinyl-Trp-oxazolone; 1.86 with biotinyl-Val-oxazolone.
As to “AAUACCCUGGUCUUCGAGUGA [Fam2.1 aminoacylation ribozyme variant]”, the self-aminoacylation in the data set on biotinyl-Phe-oxazolone was found to be 12.6; with biotinyl-Met-oxazolone, 3.34; in the data set with biotinyl-Leu-oxazolone it was 3.26; in the data set with biotinyl-Ile-oxazolone it was 2.2; in the data set on biotinyl-Trp-oxazolone, 4.72; in the data set on biotinyl-Val-oxazolone, 2.32.
For “AAUACCUUGGUCAUCGAGUGA [Fam2.1 aminoacylation ribozyme variant]”, the self-aminoacylation in the data set on biotinyl-Phe-oxazolone was 7.36; in the data set with biotinyl-Met-oxazolone, 6.2; in the data set on biotinyl-Leu-oxazolone it was 6.66; with biotinyl-Ile-oxazolone, 4.23; in the data set on biotinyl-Trp-oxazolone it was 7.87; in the data set on biotinyl-Val-oxazolone it was 3.99.
Consider “AAUACGCUGGUCAUCGAGUGA [Fam2.1 aminoacylation ribozyme variant]”, for which the self-aminoacylation with biotinyl-Phe-oxazolone came to 15.1; with biotinyl-Met-oxazolone, 4.31; in the data set with biotinyl-Leu-oxazolone it was 5; with biotinyl-Ile-oxazolone, 3.67; in the data set with biotinyl-Trp-oxazolone, 5.67; in the data set on biotinyl-Val-oxazolone it was 3.88.
Consider “AAUACUCUGGUCAUCGAGUGA [Fam2.1 aminoacylation ribozyme variant]”, for which the self-aminoacylation with biotinyl-Phe-oxazolone was found to be 8.91; in the data set with biotinyl-Met-oxazolone, 3.85; in the data set with biotinyl-Leu-oxazolone, 3.72; with biotinyl-Ile-oxazolone, 2.59; in the data set on biotinyl-Trp-oxazolone it was 5.7; with biotinyl-Val-oxazolone, 2.77.
“AAUAGCCUGGUCAUCGAGUGA [Fam2.1 aminoacylation ribozyme variant]”: the self-aminoacylation in the data set on biotinyl-Phe-oxazolone turned out to be 18.6; in the data set on biotinyl-Met-oxazolone, 4.77; in the data set with biotinyl-Leu-oxazolone it was 4.95; in the data set on biotinyl-Ile-oxazolone, 4.15; with biotinyl-Trp-oxazolone, 7.5; with biotinyl-Val-oxazolone it was 4.05.
For “AAUCACCGAGGUCAUCGGGUG [Fam2.2 aminoacylation ribozyme variant]”, the self-aminoacylation in the data set on biotinyl-Phe-oxazolone worked out at 67.7; with biotinyl-Met-oxazolone, 5.14; in the data set on biotinyl-Leu-oxazolone, 6.88; in the data set on biotinyl-Ile-oxazolone, 5.03; in the data set on biotinyl-Trp-oxazolone, 7.72; in the data set on biotinyl-Val-oxazolone, 5.33.
On to “AAUCACCUAGGUCACCGGGUG [Fam2.2 aminoacylation ribozyme variant]”, for which the self-aminoacylation in the data set on biotinyl-Phe-oxazolone was determined as 21.8; with biotinyl-Met-oxazolone it was 4.08; in the data set with biotinyl-Leu-oxazolone it was 5.27; with biotinyl-Ile-oxazolone, 4.26; in the data set on biotinyl-Trp-oxazolone, 6.06; in the data set with biotinyl-Val-oxazolone, 4.04.
